Assay results from US20260274991A1.

Target: Native Trypsin (abcam)
Experiment: cell-based or functional assay

B1: Trypsin 1/Trypsin 2-Dual-L4-Ab5 (antibody, part only; not given: light chain variable domain, V domains shown, part only)
VH: QVQLVQSGAEVKKPGASVKVSCKASGYTFTDYAISWVRQAPGQGLEWMGWISASTADTNYAQKLQGRVTMTTDTSTSTAYMELRSLRSDDTAVYYCARQDEVVGKMTYYIGTDVWGQGTTVTVSS
In the case of B1, the IC50 Against 0.25 nM Native Trypsin is reported as 4.8 nM.
